This sample holds only a part of the variants without activity.
B1: TPR 5TU (parent)
chain: GGAUCUUCUCGAUCUAACAAAAAAGACAAAUCUGCCACAAAGCUUGAGAGCAUCUUCGGAUGCAGAGGCGGCAGCCUUCGGUGGCGCGAUAGCGCCAACGUUCUCAACUAUGACACGCAAAACGCGUGCUCCGUUGAAUGGAGUUUAUCAUG

Variants of: B1
Assay: polymerase ribozyme fitness, log enrichment relative to wild type (log ratio); higher = more active; in vitro selection for triplet polymerase activity
Outline: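 Input and output libraries were sequenced on Illumina after a single in vitro selection round, run in triplicate on PCR-built, transcribed mutant libraries of each subunit of a heterodimeric triplet polymerase ribozyme. Selection annealed libraries to a biotinylated primer, the partner subunit and triplets, incubated them frozen at −7 °C, then gel-excised extended constructs for streptavidin-bead capture and RT-PCR. Genotypes with ≥10 input reads and ≥1 read per output were kept. Fitness is the logarithm, taken in base 2, of genotype enrichment divided by wild-type enrichment, using inverse-variance-weighted replicate averages.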

Row | Variant | polymerase ribozyme fitness (log ratio)
1 | A23C C114G | ≤ -4.2
2 | A23G C27U C125A G143U | ≤ -4.2
3 | A22G A106G A122C G124U | -0.81
4 | A23G G48U G65C C72U G81C G83U | ≤ -4.2
5 | A22U A40G G84A A119G | -2.75
6 | A22U A47U C96U U148A | -4.14
7 | A22C U55A A97G G143C | -3.02
8 | A22U G59A | -0.47
9 | A22U C76G C87G U101G G140C | -4.19
10 | A23C A37G U53A A66G G88U U130A U146A | ≤ -4.2
11 | A22G A40G A41C C57U A107U A120U | ≤ -4.2
12 | A22U A41U | 0.0369
13 | A23G G46A U56A C87A G141C | ≤ -4.2
14 | A22U A23G G50C G74C | ≤ -4.2
15 | A23C A26U U33G C76A U101G U145G | ≤ -4.2
16 | A22G A29U U77C C85G C95U C103U C114G C125U | ≤ -4.2
17 | A22C U33G G50C U78A C87A G126A U135A U144G | -3.83
18 | A23C C75G C103U | ≤ -4.2
19 | A23C C95U | -4.12
20 | A22C U61C G80A A119U C125A | -2.69
21 | A22G C57A G59C A60C | -2.03

Row | Variant | polymerase ribozyme fitness (log ratio)
22 | A23G C85U C95U G133U | -4
23 | A22U C51U A137G A147C | -2.48
24 | A23G C38G C95U C114G | -3.85
25 | A22U G86A C93G C99A A138C | ≤ -4.2
26 | A22U A73C G92U A110G U111C G141C | ≤ -4.2
27 | A23C C27G U61A U77A A91U G136C | ≤ -4.2
28 | A22U A30G G46C G50C A52C U55G G83A G94A | ≤ -4.2
29 | A22U G126A | 1.07
30 | A23G C87U | -3.14
31 | A22U G46A A115G | -1.54
32 | A23C C93U G141U | ≤ -4.2
33 | A22G C51U U78G C95U A107G U146C | ≤ -4.2
34 | A23C C38A C51U U55C A73G G92U C131U A138C | ≤ -4.2
35 | A23C C32U A64G G81A C87G C95U C96A A97G A138C G141U | ≤ -4.2
36 | A23C A29U G68C U82G G133U U134A A138U | ≤ -4.2
37 | A22U G83C | -1.73
38 | A22G C72A G86C C87A A110U U127C C132A U146G | ≤ -4.2
39 | A23C G88U U144G | ≤ -4.2
40 | A22U A66C C85G | ≤ -4.2
41 | A22C G58C G70U U134C | -3.68
42 | A23G G25C A40C G58A U61A G80C G88C | ≤ -4.2

Row | Variant | polymerase ribozyme fitness (log ratio)
43 | A22U U56A A64G A122U C123G A150G | ≤ -4.2
44 | A22C G92C U101G C108A A120U | -4.07
45 | A22U A41U A60U A106U | -4.16
46 | A23C A41C C75A G84A A115U G152A | ≤ -4.2
47 | A23C U55A U82C G136U | ≤ -4.2
48 | A22G G83C A98U C114U | -3.19
49 | A22C U78C A98G U102G U151G | ≤ -4.2
50 | A22U G50U C96G U145G | -0.544
51 | A22G G84A A91C C103G U104G | ≤ -4.2
52 | A22U G88U C116A A119U | -4.1
53 | A23G A30G A52U C116U C132U | ≤ -4.2
54 | A22U A29G A150G | ≤ -4.2
55 | A22C U61A G88A A107C A110C C123G G140A | ≤ -4.2
56 | A22G C36G G92A A137G | ≤ -4.2
57 | A23G C114U | -3.53
58 | A23C C93A | -3.87
59 | A23C G62C C85G U134A U148C | ≤ -4.2
60 | A22U A52C G65A C132G G140U | -3.17
61 | A22G G42C A52C G58A G68U C87G A142C | ≤ -4.2
62 | A22U U148A | -2.76
63 | A22G G124A | 0.539

Row | Variant | polymerase ribozyme fitness (log ratio)
64 | A22U A49C C69G G70C U101A | ≤ -4.2
65 | A22U A52G A91C U135G | ≤ -4.2
66 | A22G C27U A47U U56G C57G U77A C93A G143A | ≤ -4.2
67 | A22G A29U G50A U56G C87U C118U | ≤ -4.2
68 | A22G A52U G84A C123A | -2.11
69 | A22G A40C U139G | 0.649
70 | A22U C69A A91U | ≤ -4.2
71 | A22U A26C G62C C87A C116G A147U | ≤ -4.2
72 | A22U A26C U45A G48U U82G C87G C129G | ≤ -4.2
73 | A23G C72U | -3.74
74 | A22U U82A | 0.472
75 | A23C A41U G68U C93U A106G | ≤ -4.2
76 | A22U U135C | -1.64
77 | A22C U55G A60G U101A C118G | -0.937
78 | A22G A28G A52U G80A C93G U101C A113U G140U | ≤ -4.2
79 | A22U A30C G81A C116G | -3.8
80 | A22U A97G A122G | 0.332
81 | A22U C35G C76G G92A C105U | ≤ -4.2
82 | A22G C27A A29G C38U G50C C72U G84A C118A | ≤ -4.2
83 | A22G A28C U33G C93A G94C C95U A121U | ≤ -4.2
84 | A22U A47U A49G G133C A142U | ≤ -4.2

Reference: the RNAGym collection of RNA variant scans (doi:10.1073/pnas.2313332121)
